Source: paper PMC10411877

T1: GST-MAC3A (Arabidopsis thaliana (Col), UniProt Q94BR4 1-523)
T1 sequence: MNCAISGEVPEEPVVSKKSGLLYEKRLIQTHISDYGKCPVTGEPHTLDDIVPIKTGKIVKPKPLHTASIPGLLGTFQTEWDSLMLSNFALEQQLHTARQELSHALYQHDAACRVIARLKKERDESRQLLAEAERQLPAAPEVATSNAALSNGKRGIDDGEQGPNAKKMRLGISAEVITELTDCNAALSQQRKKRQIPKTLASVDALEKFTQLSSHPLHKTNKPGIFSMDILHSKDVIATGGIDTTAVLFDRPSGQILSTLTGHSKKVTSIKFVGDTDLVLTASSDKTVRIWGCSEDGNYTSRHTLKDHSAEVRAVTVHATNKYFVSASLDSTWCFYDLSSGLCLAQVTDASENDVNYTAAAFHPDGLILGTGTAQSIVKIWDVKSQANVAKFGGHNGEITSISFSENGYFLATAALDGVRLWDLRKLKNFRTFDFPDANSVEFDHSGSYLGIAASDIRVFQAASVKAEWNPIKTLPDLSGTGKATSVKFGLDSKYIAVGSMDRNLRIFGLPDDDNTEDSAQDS

B1: pIAA19biotin (dsDNA)
DNA 1: AATGACTCCACGTGTCGATATTG
DNA 2: CAATATCGACACGTGGAGTCATT
B2: cold pIAA19 (dsDNA)
DNA 1: ATCTGTTCCCTTAACCACCTTGT
DNA 2: ACAAGGTGGTTAAGGGAACAGAT
B3: pYUC8biotin (dsDNA)
DNA 1: CCTCTCCACGTGGCTTCCATTC
DNA 2: GAATGGAAGCCACGTGGAGAGG
B4: cold pYUC8 (dsDNA)
DNA 1: CCTCTCCACGTGGCTTCCATTC
DNA 2: GAATGGAAGCCACGTGGAGAGG

Experiments:
GST-MAC3A [1] = target: T1, GST-MAC3A; test: FLISA
GST-MAC3A [2] = target: T1, GST-MAC3A; test: competition FLISA
GST-MAC3A [3] = target: T1, GST-MAC3A; test: competition FLISA; remark: listed apart in the source

Binder | binding result (GST-MAC3A [1]) | other results
B1 | binds | 
B2 |  | binding result (GST-MAC3A [2]): binds
B3 | binds | 
B4 |  | binding result (GST-MAC3A [3]): binds
